The source of these data is article PMC8376927, “14-3-3 proteins inactivate DAPK2 by promoting its dimerization and protecting key regulatory phosphosites” (Communications Biology, 2021).

Non-standard residues stand in square brackets, D forms with d. No end group written: not given here. *: point of attachment. 5FAM = O=C1OC2(c3ccc(O)cc3Oc3cc(O)ccc32)c2ccc(C(=O)*)cc21; pT = C[C@@H](OP(=O)(O)O)[C@H](N)C(=O)O

Sequences and labels used below:
B1: Human 14-3-3γΔC (residues 1-235 lacking the C-terminal 13-residue-long flexible tail) (domain or fragment, UniProt P61981 1-235, looked up)
chain: MVDREQLVQKARLAEQAERYDDMAAAMKNVTELNEPLSNEERNLLSVAYKNVVGARRSSWRVISSIEQKTSADGNEKKIEMVRAYREKIEKELEAVCQDVLSLLDNYLIKNCSETQYESKVFYLKMKGDYYRYLAEVATGEKRATVVESSEKAYSEAHEISKEHMQPTHPIRLGLALNYSVFYYEIQNAPEQACHLAKTAFDDAIAELDTLNEDSYKDSTLIMQLLRDNLTLWTS
notes: 14-3-3 protein gamma, human, residues 1-235 (C-terminally truncated)
B2: DAPK2_RNTD, full-length human DAPK2 mutant with the C terminus S367STS370 changed to R367NTD370, autophosphorylated (enzyme)
chain: MFQASMRSPNMEPFKQQKVEDFYDIGEELGSGQFAIVKKCREKSTGLEYAAKFIKKRQSRASRRGVSREEIEREVSILRQVLHHNVITLHDVYENRTDVVLILELVSGGELFDFLAQKESLSEEEATSFIKQILDGVNYLHTKKIAHFDLKPENIMLLDKNIPIPHIKLIDFGLAHEIEDGVEFKNIFGTPEFVAPEIVNYEPLGLEADMWSIGVITYILLSGASPFLGDTKQETLANITAVSYDFDEEFFSQTSELAKDFIRKLLVKETRKRLTIQEALRHPWITPVDNQQAMVRRESVVNLENFRKQYVRRRWKLSFSIVSLCNHLTRSLMKKVHLRPDEDLRNCESDTEEDIARRKALHPRRRRNTD
modifications: phosphothreonine at 369 (stoichiometrically autophosphorylated); autophosphorylated Ser318 (the peptide with Ser318 carried one or two phosphoresidues)
notes: Death-associated protein kinase 2 (DAPK2, DRP-1), human, full length; Cloned into modified pRSFDuet-1 (BamHI, NotI)

Data set [1] deals with the molecule itself. The data set is described as follows: crystal structure; binary complex 14-3-3γΔC:ctDAPK2-pT369 mixed 1:1.2; hanging drop, 290 K; space group R3; 2.7 Å.
For data set [2], the target named is T1, rat calmodulin protein (Ca2+/CaM) (rat, UniProt P0DP29 1-149).
T1 construct: calmodulin, rat; also called rat CaM
The data set is described as follows: AUC; sedimentation velocity, 50 μM mixture of DAPK2_RNTD with Ca2+/CaM (1:1 molar ratio) compared with 50 μM DAPK2_RNTD alone; 20 °C. To be noted: both partners purified.

Data set [3] deals with T2, dansyl-labeled rat calmodulin (DANS-CaM) (rat, UniProt P0DP29 1-149, dansyl label (dansyl chloride; site not stated)).
T2 construct: calmodulin, rat; Measured with 1 mM CaCl2; also called DANS-Ca^2+/CaM; dansyl-Ca^2+/CaM
Description: time-resolved fluorescence intensity and anisotropy decay; 25 μM DANS-CaM, 30 μM DAPK2, with or without 100 μM 14-3-3γ; 23 °C; 20 mM HEPES-NaOH pH 7.5, 150 mM NaCl, 1 mM CaCl2, 1 mM TCEP. The settings on record: both partners purified.

Data set [4] addresses B2. The data set is described as follows: AUC; sedimentation velocity, 10-molar excess of 14-3-3γ over DAPK2_RNTD; 20 °C. The settings on record: both partners purified.
The target of data set [5] is B2. The data set is described as follows: AUC; sedimentation velocity, 10-molar excess of DAPK2_RNTD over 14-3-3γ; 20 °C. The settings on record: both partners purified.
Data set [6] addresses B2. Description: AUC; sedimentation velocity, mixtures of 6 μM DAPK2_RNTD and 0.6-60 μM 14-3-3γ; 20 °C; 50 mM HEPES-NaOH pH 7.5, 150 mM NaCl, 1 mM TCEP. To be noted: both partners purified.
Data set [7] deals with B1. Description: fluorescence polarisation; 14-3-3γ (160 µM and binary dilution series) incubated 1 h with 50 nM FAM-labelled peptide; 20 mM HEPES-NaOH pH 7.4, 150 mM NaCl, 0.1% Tween 20, 0.1% BSA; one-site-binding model; apparent KD. The settings on record: both partners purified.

In the case of B1, in data set [1], the binding result was “binds”.

Regarding B2, the binding result in data set [2] and in data set [3] was “binds” throughout.

B3: DAPK2 WT, full-length human DAPK2, autophosphorylated (enzyme)
chain: MFQASMRSPNMEPFKQQKVEDFYDIGEELGSGQFAIVKKCREKSTGLEYAAKFIKKRQSRASRRGVSREEIEREVSILRQVLHHNVITLHDVYENRTDVVLILELVSGGELFDFLAQKESLSEEEATSFIKQILDGVNYLHTKKIAHFDLKPENIMLLDKNIPIPHIKLIDFGLAHEIEDGVEFKNIFGTPEFVAPEIVNYEPLGLEADMWSIGVITYILLSGASPFLGDTKQETLANITAVSYDFDEEFFSQTSELAKDFIRKLLVKETRKRLTIQEALRHPWITPVDNQQAMVRRESVVNLENFRKQYVRRRWKLSFSIVSLCNHLTRSLMKKVHLRPDEDLRNCESDTEEDIARRKALHPRRRSSTS
modifications: autophosphorylated at Ser318 and at two additional sites, at least, within the C-terminal 14-3-3-binding motif
notes: Death-associated protein kinase 2 (DAPK2, DRP-1), human, full length
For B3, in data set [3], the binding result is “binds”.

B4: DAPK2_RNTD S318A (enzyme)
chain: MFQASMRSPNMEPFKQQKVEDFYDIGEELGSGQFAIVKKCREKSTGLEYAAKFIKKRQSRASRRGVSREEIEREVSILRQVLHHNVITLHDVYENRTDVVLILELVSGGELFDFLAQKESLSEEEATSFIKQILDGVNYLHTKKIAHFDLKPENIMLLDKNIPIPHIKLIDFGLAHEIEDGVEFKNIFGTPEFVAPEIVNYEPLGLEADMWSIGVITYILLSGASPFLGDTKQETLANITAVSYDFDEEFFSQTSELAKDFIRKLLVKETRKRLTIQEALRHPWITPVDNQQAMVRRESVVNLENFRKQYVRRRWKLAFSIVSLCNHLTRSLMKKVHLRPDEDLRNCESDTEEDIARRKALHPRRRRNTD
notes: Death-associated protein kinase 2 (DAPK2), human, full length, made from DAPK2_RNTD
As for B4, in data set [3], the binding result was “binds”.

B5: Human 14-3-3γ WT (natural protein, UniProt P61981 1-247, looked up)
chain: MVDREQLVQKARLAEQAERYDDMAAAMKNVTELNEPLSNEERNLLSVAYKNVVGARRSSWRVISSIEQKTSADGNEKKIEMVRAYREKIEKELEAVCQDVLSLLDNYLIKNCSETQYESKVFYLKMKGDYYRYLAEVATGEKRATVVESSEKAYSEAHEISKEHMQPTHPIRLGLALNYSVFYYEIQNAPEQACHLAKTAFDDAIAELDTLNEDSYKDSTLIMQLLRDNLTLWTSDQQDDDGGEGNN
notes: 14-3-3 protein gamma, human, wild type; it speaks of the protein as a dimer
On to B5, for which the “stoichiometry N” value is 2 14-3-3γ per DAPK2 (printed 2:1) in data set [4] and 1 14-3-3γ per DAPK2 (printed 2:2) in data set [5]. Moreover, the Kd in data set [6] was less than 100 nM.

B6: FAM-ctDAPK2-pT369 peptide (FAM-RRRSSpTS) (peptide)
peptide: 5FAM-RRRSS[pT]S
notes: source: synthetic peptide (Pepscan Presto BV)
Take B6: the Kd in data set [7] came out at 161 ± 7 nM.
